B1: MBP-SCC1^350–550 with C-terminal tetracysteine motif, unphosphorylated (domain or fragment, human, UniProt O60216 350-550, looked up)
chain: TLDLAPPTKKLMMWKETGGVEKLFSLPAQPLWNNRLLKLFTRCLTPLVPEDLRKRRKGGEADNLDEFLKEFENPEVPREDQQQQHQQRDVIDEPIIEEPSRLQESVMEASRTNIDESAMPPPPPQGVKRKAGQIDPEPVMPPQQVEQMEIPPVELPPEEPPNICQLIPELELLPEKEKEKEKEKEDDEEEEDEDASGGDQD
modifications: FlAsH-EDT2 fluorescent dye on the C-terminal tetracysteine motif
notes: human SCC1/RAD21, amino acids 350 to 550 (holds cleavage site 2, R427); pETM41 vector; also called SCC1 site 2 (amino acids 350 to 550); source: E. coli BL21, purified (HiTrap MBP, Superdex 200); not shown: 6xHis-MBP, N-terminal, kept

Experiments:
Test in all cases: fluorescence polarisation; FlAsH-EDT2-labelled SCC1 fragment as probe, inactive separase added; 25 mM Hepes (pH 8.0), 100 mM NaCl, bovine serum albumin (0.1 mg/ml), 0.01% NP-40; room temperature (25°C); One Site-Total nonlinear fit
[1] = target: MBP-SCC1^100–320 with C-terminal tetracysteine motif, unphosphorylated (human) (UniProt O60216)
[2] = target: phosphorylated SCC1 site 1 (100 to 320) (human) (UniProt O60216)
[3] = target: T1, inactive apo-separase (separase^C2029S) (human, UniProt Q14674 1-2120, C2029S); details: both partners purified
T1 construct: human separase (2120 amino acids), amino acids 1 to 2120, catalytic cysteine replaced with serine; Gene-optimised synthetic cDNA in the pF1 vector; also called apo-separase^C2029S; source: Sf9 (baculovirus), purified (Strep-Tactin, heparin, Superose 6)
T1 sequence (Q14674 whole entry C2029S, the tested form may be a part): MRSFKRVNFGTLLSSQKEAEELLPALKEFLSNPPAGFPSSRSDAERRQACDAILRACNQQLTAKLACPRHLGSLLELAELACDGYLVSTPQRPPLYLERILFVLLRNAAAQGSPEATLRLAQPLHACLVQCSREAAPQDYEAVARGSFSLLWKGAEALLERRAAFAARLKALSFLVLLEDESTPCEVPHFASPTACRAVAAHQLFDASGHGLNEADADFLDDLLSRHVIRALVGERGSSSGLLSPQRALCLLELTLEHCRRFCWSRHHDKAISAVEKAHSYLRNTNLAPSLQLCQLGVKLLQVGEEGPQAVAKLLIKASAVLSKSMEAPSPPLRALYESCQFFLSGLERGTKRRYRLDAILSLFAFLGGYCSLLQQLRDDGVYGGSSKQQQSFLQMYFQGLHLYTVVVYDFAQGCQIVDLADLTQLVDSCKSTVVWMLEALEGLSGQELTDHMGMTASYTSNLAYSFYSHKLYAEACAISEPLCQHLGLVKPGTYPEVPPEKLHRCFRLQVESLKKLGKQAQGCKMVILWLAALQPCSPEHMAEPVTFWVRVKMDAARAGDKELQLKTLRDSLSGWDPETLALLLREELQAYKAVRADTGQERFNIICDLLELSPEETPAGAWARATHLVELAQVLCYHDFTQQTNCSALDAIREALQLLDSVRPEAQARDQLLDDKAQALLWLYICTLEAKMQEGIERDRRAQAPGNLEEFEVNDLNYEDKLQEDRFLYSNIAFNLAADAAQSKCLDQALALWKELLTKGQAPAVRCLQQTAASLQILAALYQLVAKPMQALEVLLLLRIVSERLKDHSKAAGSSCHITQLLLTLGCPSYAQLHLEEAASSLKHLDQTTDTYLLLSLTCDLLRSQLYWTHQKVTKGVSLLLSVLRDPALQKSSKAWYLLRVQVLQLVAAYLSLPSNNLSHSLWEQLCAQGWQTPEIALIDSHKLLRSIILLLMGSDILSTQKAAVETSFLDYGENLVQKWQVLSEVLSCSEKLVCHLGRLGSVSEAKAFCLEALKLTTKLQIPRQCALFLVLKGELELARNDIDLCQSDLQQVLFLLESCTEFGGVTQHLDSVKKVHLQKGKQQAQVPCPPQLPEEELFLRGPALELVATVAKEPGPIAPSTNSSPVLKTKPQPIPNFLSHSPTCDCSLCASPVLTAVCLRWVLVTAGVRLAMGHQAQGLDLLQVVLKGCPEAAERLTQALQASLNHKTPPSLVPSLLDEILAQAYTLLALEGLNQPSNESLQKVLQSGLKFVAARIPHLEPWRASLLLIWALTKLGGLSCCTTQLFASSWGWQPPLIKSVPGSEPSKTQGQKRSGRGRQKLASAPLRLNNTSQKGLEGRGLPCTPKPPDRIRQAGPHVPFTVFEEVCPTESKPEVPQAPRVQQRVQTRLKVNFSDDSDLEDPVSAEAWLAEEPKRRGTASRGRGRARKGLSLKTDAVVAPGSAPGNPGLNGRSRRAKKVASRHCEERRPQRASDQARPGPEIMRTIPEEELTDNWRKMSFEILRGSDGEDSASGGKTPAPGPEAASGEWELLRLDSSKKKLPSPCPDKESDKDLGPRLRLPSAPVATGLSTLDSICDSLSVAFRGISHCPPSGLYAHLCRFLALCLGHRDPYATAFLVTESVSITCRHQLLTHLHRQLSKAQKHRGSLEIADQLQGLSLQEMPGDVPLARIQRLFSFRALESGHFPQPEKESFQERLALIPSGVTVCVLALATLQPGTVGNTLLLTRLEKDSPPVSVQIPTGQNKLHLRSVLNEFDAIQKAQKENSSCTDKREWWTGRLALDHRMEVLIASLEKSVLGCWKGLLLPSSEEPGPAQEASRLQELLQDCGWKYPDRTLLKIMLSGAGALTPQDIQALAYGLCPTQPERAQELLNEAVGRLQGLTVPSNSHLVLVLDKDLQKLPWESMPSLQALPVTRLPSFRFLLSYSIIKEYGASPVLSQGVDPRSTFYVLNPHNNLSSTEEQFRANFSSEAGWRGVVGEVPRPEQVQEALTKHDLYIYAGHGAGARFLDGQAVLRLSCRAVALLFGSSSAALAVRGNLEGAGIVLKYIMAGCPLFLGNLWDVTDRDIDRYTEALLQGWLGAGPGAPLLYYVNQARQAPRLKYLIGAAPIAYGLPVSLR

Sequence of phosphorylated SCC1 site 1 (100 to 320) (human) (O60216 100-320): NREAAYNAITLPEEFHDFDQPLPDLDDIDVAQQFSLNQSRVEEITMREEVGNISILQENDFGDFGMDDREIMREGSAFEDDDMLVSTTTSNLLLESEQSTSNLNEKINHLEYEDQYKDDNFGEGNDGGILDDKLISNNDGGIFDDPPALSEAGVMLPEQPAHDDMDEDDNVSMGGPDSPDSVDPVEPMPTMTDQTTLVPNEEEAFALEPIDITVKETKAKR
Sequence of MBP-SCC1^100–320 with C-terminal tetracysteine motif, unphosphorylated (human) (O60216 100-320): as above

Row | Molecule | fold lower Kd than the SCC1 350-550 construct [1] | fold lower Kd than unphosphorylated SCC1 100-320 [2] | binding result [3]
1 | inactive apo-separase (separase^C2029S), Q14674 1-2120 | 3 fold | 2 fold | –
2 | B1 | – | – | binds
